# From article PMC2894447
# Experiments:
# [1] = biological target: Rabbit skeletal muscle actin, monomeric (G-actin), 100% pyrene labeled (rabbit) (UniProt P68135); assay: other fluorescence titration
# [2] = biological target: APC-B-ΔN4; assay: SEC + other: sucrose gradient sedimentation velocity
Kd [1] [nM],stoichiometry N [2],Molecule
17.3,–,"APC-B, the C-terminal Basic domain of adenomatous polyposis coli protein (domain or fragment)"
–,1.97,"APC-B-ΔN4 (domain or fragment, modifications not checked) ASTKSSGSGKMSYTSPGRQMSQQNLTKQTGLSKNASSIPRSESASKGLNQMNNGNGANKKVELSRMSSTKSSGSESDRSERPVLVRQSTFIKEAPSPTLRRKLEESASFESLSPSSRPASPTRSQAQTPVLSPSLPDMSLSTHSSVQAGGWRKLPPNLSPTIEYNDGRPAKRHDIARSHSESPSRLPINRSGTWKREHSKHSSSLPRVSTWRRTGSSSSILSASSESSEKAKSEDEKHVNSISGTKQSKENQVSAKGTWRKIKENEFSPTNSTSQTVSSGATNGAESKTLIYQMAPAVSKTEDVWVRIEDCPINNPRSGRS"
